Measured values: the supplement of paper PMC6379048

What was measured:
Test in all cases: Kd (EC50 corrected by depletion factor)
HMGB2 = target: T1, HMGB2 (UniProt P26583)
T1 sequence: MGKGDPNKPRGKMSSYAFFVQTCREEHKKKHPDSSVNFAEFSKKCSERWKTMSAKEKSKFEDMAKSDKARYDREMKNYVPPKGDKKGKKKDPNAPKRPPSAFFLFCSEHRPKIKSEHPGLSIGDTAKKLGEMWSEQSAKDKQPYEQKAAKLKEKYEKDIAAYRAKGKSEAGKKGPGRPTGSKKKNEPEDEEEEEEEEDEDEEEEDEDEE
How it was run: (§1)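 HEK293-FT lysate (2.5 mg protein/well) was treated with free RNA oligos (0 nM to 30 μM) for 1 h at 4°C, then with the same oligos on NHS-Sepharose beads for 30 min at 4°C. Bound proteins were quantified by label-free LC-MS/MS relative to the control. EC50 came from a four-parameter log-logistic fit, and Kd is EC50 times a protein-dependent depletion factor.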

P4HA2 = P4HA2 (UniProt O15460)
Chain of P4HA2 (O15460 whole entry): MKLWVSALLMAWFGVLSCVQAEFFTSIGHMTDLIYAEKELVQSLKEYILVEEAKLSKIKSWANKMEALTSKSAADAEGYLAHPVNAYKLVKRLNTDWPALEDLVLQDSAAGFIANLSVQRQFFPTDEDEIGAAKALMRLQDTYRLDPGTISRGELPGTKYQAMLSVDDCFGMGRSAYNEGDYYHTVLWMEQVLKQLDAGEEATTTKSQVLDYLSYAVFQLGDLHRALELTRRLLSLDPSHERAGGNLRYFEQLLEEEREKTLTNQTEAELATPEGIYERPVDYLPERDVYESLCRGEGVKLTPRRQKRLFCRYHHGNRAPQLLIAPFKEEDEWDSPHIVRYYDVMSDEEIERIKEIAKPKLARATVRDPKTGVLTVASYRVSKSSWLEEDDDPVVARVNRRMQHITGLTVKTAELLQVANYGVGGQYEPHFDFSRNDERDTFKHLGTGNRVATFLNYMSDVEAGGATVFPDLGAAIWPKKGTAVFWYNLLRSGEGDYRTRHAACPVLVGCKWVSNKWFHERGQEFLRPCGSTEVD
How it was run: as §1

SYNCRIP = target: T2, SYNCRIP (UniProt O60506)
T2 sequence: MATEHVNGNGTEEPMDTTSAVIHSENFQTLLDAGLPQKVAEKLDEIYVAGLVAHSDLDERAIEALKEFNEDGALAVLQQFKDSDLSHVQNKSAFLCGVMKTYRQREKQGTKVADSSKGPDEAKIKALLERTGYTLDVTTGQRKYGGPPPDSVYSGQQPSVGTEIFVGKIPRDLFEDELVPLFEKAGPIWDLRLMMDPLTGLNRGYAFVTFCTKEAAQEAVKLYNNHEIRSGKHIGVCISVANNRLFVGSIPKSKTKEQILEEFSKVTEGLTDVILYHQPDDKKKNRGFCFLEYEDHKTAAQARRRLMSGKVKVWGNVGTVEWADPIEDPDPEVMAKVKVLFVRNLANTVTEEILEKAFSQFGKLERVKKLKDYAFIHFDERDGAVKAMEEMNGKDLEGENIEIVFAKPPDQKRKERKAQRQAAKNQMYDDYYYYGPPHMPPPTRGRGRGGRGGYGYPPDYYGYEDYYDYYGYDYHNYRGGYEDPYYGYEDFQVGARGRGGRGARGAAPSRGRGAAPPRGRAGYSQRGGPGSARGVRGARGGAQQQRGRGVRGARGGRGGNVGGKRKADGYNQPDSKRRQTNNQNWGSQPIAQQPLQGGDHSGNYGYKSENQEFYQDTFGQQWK
How it was run: as §1

UPF1 = target: T3, UPF1 (UniProt Q92900)
T3 sequence: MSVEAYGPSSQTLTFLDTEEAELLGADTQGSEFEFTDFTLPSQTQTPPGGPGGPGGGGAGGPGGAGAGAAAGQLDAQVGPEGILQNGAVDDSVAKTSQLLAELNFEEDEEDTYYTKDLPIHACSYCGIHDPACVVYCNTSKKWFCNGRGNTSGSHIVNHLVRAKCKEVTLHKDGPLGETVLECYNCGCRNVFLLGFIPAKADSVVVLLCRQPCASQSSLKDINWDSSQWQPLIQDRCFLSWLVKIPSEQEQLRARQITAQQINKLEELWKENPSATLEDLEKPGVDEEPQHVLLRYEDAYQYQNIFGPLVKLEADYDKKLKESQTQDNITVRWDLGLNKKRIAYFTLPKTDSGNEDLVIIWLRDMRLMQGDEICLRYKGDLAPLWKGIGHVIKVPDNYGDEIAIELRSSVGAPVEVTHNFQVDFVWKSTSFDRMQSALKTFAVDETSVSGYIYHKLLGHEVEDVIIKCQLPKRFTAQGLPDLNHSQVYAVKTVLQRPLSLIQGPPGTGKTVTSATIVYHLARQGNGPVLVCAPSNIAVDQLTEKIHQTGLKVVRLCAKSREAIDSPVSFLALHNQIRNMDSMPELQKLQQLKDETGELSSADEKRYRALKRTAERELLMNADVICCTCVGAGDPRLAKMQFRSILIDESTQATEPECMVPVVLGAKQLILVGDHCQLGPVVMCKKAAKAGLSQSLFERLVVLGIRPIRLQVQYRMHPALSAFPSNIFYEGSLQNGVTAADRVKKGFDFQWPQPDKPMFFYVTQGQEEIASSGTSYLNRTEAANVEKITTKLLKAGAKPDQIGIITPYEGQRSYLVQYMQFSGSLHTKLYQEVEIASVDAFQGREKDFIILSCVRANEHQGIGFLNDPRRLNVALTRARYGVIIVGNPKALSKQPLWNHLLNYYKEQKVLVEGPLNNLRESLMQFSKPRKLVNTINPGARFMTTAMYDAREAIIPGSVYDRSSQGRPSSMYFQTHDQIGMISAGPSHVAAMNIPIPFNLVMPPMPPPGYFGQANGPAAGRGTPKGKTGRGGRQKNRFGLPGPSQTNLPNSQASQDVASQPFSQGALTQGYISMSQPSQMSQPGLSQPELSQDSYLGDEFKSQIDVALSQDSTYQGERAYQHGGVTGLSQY
How it was run: as §1

PCBP1 = PCBP1 (UniProt Q15365)
Chain of PCBP1 (Q15365 whole entry): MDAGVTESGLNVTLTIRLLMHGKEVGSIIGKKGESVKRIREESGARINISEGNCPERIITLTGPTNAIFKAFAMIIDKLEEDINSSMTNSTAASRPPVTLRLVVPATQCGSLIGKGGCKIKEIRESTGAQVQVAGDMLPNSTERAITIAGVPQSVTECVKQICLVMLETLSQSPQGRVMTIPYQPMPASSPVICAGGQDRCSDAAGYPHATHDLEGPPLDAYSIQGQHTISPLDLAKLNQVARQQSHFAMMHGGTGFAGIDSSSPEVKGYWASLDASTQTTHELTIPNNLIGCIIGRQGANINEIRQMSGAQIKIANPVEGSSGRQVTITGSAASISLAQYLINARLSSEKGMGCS
How it was run: as §1

RPS5 = RPS5 (UniProt P46782)
How it was run: as §1

HNRNPA1 = HNRNPA1 (UniProt P09651)
Chain of HNRNPA1 (P09651 whole entry): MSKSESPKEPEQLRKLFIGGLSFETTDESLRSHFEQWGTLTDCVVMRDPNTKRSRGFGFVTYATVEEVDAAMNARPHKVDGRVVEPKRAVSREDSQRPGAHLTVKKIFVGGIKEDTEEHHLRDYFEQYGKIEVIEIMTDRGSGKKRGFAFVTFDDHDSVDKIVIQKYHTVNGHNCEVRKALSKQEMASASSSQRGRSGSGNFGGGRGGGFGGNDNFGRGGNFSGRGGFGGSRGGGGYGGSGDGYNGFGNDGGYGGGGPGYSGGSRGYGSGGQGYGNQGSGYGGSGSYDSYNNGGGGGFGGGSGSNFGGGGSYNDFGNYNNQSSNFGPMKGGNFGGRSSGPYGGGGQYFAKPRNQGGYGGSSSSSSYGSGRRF
How it was run: as §1

Sequence: AAUAAA
- Kd (HMGB2): 2.05 nM
- Kd (P4HA2): 37.5 nM
- Kd (SYNCRIP): 252 nM
- Kd (UPF1): 2640 nM

Sequence: CUGUCCU
- Kd (PCBP1): 1560 nM
- Kd (RPS5): 146 nM

Sequence: UAUUUAU
- Kd (HNRNPA1): 1960 nM
